Data as given in US20200179497A1.
Like-named read-outs stand apart in the source and are kept apart here.

Assays:
Assay in all cases: cell-based or functional assay
[1] = target: IVIg (Octagam)
[2] = target: IVIg (Octagam); remark: listed apart in the source
[3] = target: adalimumab (Humira)
[4] = target: denosumab (XGEVA)

Substance	Conc. of enzyme, 1st IgG heavy chain, IgG to scIgG (gel) [1]	Conc. of enzyme, 2nd IgG heavy chain, scIgG to F(ab')2 (gel) [1]	Conc. of enzyme, 2nd IgG heavy chain, scIgG to F(ab')2 (gel) [2]	enzyme concentration giving a dominating scIgG band on SDS-PAGE [2]	enzyme concentration giving equal cleavage on SDS-PAGE [3]	enzyme concentration giving a dominating F(ab')2 band on SDS-PAGE [4]	enzyme concentration giving a single intense scIgG band on SDS-PAGE ([4]; scale: pig/ml)	enzyme concentration giving mainly scIgG on SDS-PAGE [2]
pCART124 (IdeS with additional N terminal methionine and histidine tag) (enzyme)	1900 ng/mL	7500 ng/mL	6000 ng/mL	1.9 ng/mL	–	–	–	–
pCART144 (IdeZ with additional N terminal methionine and histidine tag) (enzyme)	–	–	–	–	4.6 ng/mL	3.3 µg/mL	0.12	–
BX1001865 (IdeS lacking tag, produced to GMP standard) (enzyme)	1900 ng/mL	7500 ng/mL	6000 ng/mL	1.9 ng/mL	–	–	–	1.9 ng/mL
